Among the data in paper PMC7752914 are stoichiometry N (heterotetramers in the heterooctamer) values, retold here.

Experiment [1] addresses α2βγ heterotetramer of wild-type HsIDH3 (human) (UniProt P50213). Kind of experiment: SEC-MALS; low concentration (2 mg/ml); Superdex 200 10/300 GL, 24 °C, 10 mM HEPES pH 7.4, 200 mM NaCl, 5 mM β-ME.
The target is the same in experiment [2]. Kind of experiment: SEC-MALS; high concentration (12 mg/ml); Superdex 200 10/300 GL, 24 °C, 10 mM HEPES pH 7.4, 200 mM NaCl, 5 mM β-ME. In general terms: In gel filtration, larger molecules generally elute earlier.

For the substance “α2βγ heterotetramer of wild-type HsIDH3 (from UniProt P50213 28-366; O43837 35-385; P51553 40-393) (complex)”, the stoichiometry N (heterotetramers in the heterooctamer) in experiment [1] and in experiment [2] was 2 in each case.
